{"source": "paper PMC5120207", "about": "“An archaeal ADP-dependent serine kinase involved in cysteine biosynthesis and serine metabolism” (Nature Communications, 2016)", "proteins": {"B1": {"name": "TK0378 protein; ADP-dependent Ser kinase (SerK; Tk-SerK) (Thermococcus kodakarensis KOD1) (protein)", "chain": "MGVEKVPKYDIPTKKVDYVFIELDKMKPHEQLVQKELEAFIESVTGSGIFWKPMLLAKVPGEDMYLIVDGHHRWAGLQKLGAKRAPSVILDYFSDDVKVYTWYPAFKGDLNEVVERLKKEGLEVIEDPEAEEKAERGEIAFALVGEKSFAIPGGLEEQKKVSKVLDEMSVEGKIELIYYGLKEDAREDMAKGEIDYVFIRKAPTKEEVMELVKRGEVYSPKTTRHVLPFNPDKIDVKLEELF", "notes": "full coding region in pET21a(+) (NdeI/EcoRI), no tag mentioned; E. coli BL21-CodonPlus(DE3)-RIL; heat treatment, Resource Q, Superdex 200"}}, "key": {"[1]": {"substrate": "N[C@@H](CO)C(=O)O", "assay": "purified protein", "conditions": "ADP co-substrate, MgCl2, 50 mM Tris-HCl pH 7.5, 85 °C (standard assay; 20 mM each ADP and MgCl2)"}, "[2]": {"substrate": "Nc1ncnc2c1ncn2[C@@H]1O[C@H](COP(=O)(O)OP(=O)(O)O)[C@@H](O)[C@H]1O", "assay": "HPLC of AMP formed from ADP", "type": "biochemical, Thermococcus kodakarensis", "conditions": "L-serine co-substrate (50 mM in standard assay), MgCl2, 50 mM Tris-HCl pH 7.5, 85 °C"}}}
{"protein": "B1", "values": [{"measurement": "Km", "setting": "[1]", "result": "5.1 ± 0.5", "unit": "mM"}, {"measurement": "kcat", "setting": "[1]", "result": "218 ± 5", "unit": "s⁻¹"}, {"measurement": "Km", "setting": "[2]", "result": "2.4 ± 0.5", "unit": "mM"}, {"measurement": "kcat", "setting": "[2]", "result": "204 ± 12", "unit": "s⁻¹"}]}
